This is an account of results in patent US20260258115A1 (MAPP BIOPHARMACEUTICAL, published 2026).

Some results are limits rather than exact numbers.

Assay [1] concerns the target T1, RSV postfusion F, subtype B (postF trimer) (Respiratory syncytial virus subtype B, UniProt P13843 26-513).
T1 construct: also called Postfusion subtype B
Put plainly: BLI, IgG apparent affinity. On the technique in general: In BLI a coated tip is dipped into the sample, and binding shifts an interference pattern.

Assay [2] concerns the target RSV F on recombinant mKate-RSV B 18537 virus (Respiratory syncytial virus B 18537, UniProt P13843 26-574). Put plainly: cell-based or functional assay.
Assay [3] concerns the target RSV F on recombinant mKate-RSV A2 virus (Respiratory syncytial virus A2, UniProt P03420 26-574). Put plainly: cell-based or functional assay.
For assay [4], the target named is RSV fusion glycoprotein (RSV F) on RSV-A2 virus (respiratory syncytial virus, UniProt P03420 26-574). Put plainly: cell-based or functional assay.
The target in assay [5] is RSV prefusion F (preF), DS-Cav1 (respiratory syncytial virus, UniProt P03420 26-513). Put plainly: BLI, IgG on sensor, 100 nM antigen.
In assay [6] the target is RSV postfusion F (postF), F deltaFP (respiratory syncytial virus, UniProt P03420 26-513). Put plainly: BLI, IgG on sensor.
Assay [7] has as its target RSV prefusion F (preF), DS-Cav1 stabilized trimer, subtype A (Respiratory Syncytial Virus, subtype A, UniProt P03420 26-513). Put plainly: BLI, IgG on anti-human IgG sensors, 100 nM antigen, apparent KD.
In assay [8] the target is RSV F on RSV subtype A virus (RSV-A2) (Respiratory Syncytial Virus, subtype A, …, UniProt P03420 26-574). Put plainly: cell-based or functional assay.

B1: ADI-21082 (antibody, V domains shown)
VH: EVQLVESGGGLVKPGGSLKLSCVASGLKFSSYSMNWVRQAPGKGLEWVSSVSAGSSYTNYADSVKGRFTISRDNAKNSLYLQMNSLRVDDTAVYYCATERCSGGSCYLHGFDPWGQGTTVTVSS
VL: QSVLTQPPSVSGAPGQRVTISCTGSSSNIGAGYDVHWYQQLPGTAPKLLIFDNIIRPSGVPDRFSGSKSGTSASLAITGLQADDEADYYCQSYDKSGDYVFGTGTKVTVL
As to B1, the Kd in assay [1] turned out to be 6.17 nM. For the same molecule, the “Neut IC50 (ug/ml) subtype B” value in assay [2] is 0.25 µg/mL. The “Neut IC50 (ug/ml) subtype A” value in assay [3] amounted to 0.09 µg/mL.

B2: ADI-41377 (antibody, V domains shown)
VH: QVQLQQSGPGLVKPSQTLSLTCAISGDSVSSDSATWNWIRQSPSRGLEWLGRAYYRSKWYYDYAPSVKSRLTINPDTSKNQFSLQLTSVTPQDTAVYFCARDLPPLEYFDGSGYYFLDHWGQGTLVTVSS
VL: SYELTQPPSVSVAPGQTARLSCGGHNIGSKSVQWYQQKPDQAPVLVVYDDHDRPSGIPDRFSGSNSGDMATLTISRVEAGDEADYYCQVCESGRDPMVFGGGTKVTVL
notes: IgG1; also called Ab 674
B2: in assay [4], the “Neutralization IC50 (RSV subtype A)” value came out at 0.24 µg/mL. In addition, in assay [5], the Kd came to 1.74 nM. In addition, the binding result in assay [6] is given as “no binding (tested: 100 nM antigen)”.

B3: ADI-21077 (antibody, V domains shown)
VH: QVQLVESGGGLVKPGGSLRLSCVVSGFTFRDYYMSWIRQAPGKGLEWISYISPSSTYTNYADSVRGRFTISRDNAENSLYLQMNSLRAEDTAVYYCARVNIAATGAGGVFLDYWGQGTTVTVSS
VL: QPVLTQPPSVSGAPGQRVTISCAGSSSNIGAGYDVHWYQQLPGTAPKLLIYGNINRPSGVPDRFSGSKSGTSASLAITGLQAEDEADYYCQSYDSSLSGSYVFGTGTKVTVL
As for B3, the binding result in assay [1] was “no binding”. Further, in assay [2], the “Neut IC50 (ug/ml) subtype B” value is 0.06 µg/mL. Besides, the “Neut IC50 (ug/ml) subtype A” value in assay [3] amounted to 0.06 µg/mL.

B4: ADI-21079 (antibody, V domains shown)
VH: EVQLLESGGGLVKPGGSLRLSCAASGFTFSDYYMSWIRQAPGKGLEWVSNISGGSTYTNYADSVKGRFTISRDNAKNSLYLQMNSLRAEDTAVYYCAREAYGSGNYYNPNWLDPWGQGTLVTVSS
VL: QSVLTQPPSVSGAPGQRVTISCTGSSSNIGAGYDVHWYQQLPGTAPKLLIYGNRNRPSGVPDRFSGSKSGTSASLAITGLQAEDEADYYCQSYDSSLSGSVFGGGTKLTVL
With B4, in assay [1], the binding result is reported as “no binding”. In assay [2], the “Neut IC50 (ug/ml) subtype B” value was 0.29 µg/mL. For the same molecule, the “Neut IC50 (ug/ml) subtype A” value in assay [3] is 0.2 µg/mL.

B5: ADI-21086 (antibody, V domains shown)
VH: EVQLVETGGGLVKPGGSLRLSCAASPFAFSNYYMSWIRQAPGKGLEWISNISGGSTFTNYADSVKGRFTISRDNARNSLYLLMNNLRTEDTAVYYCAREASVAAGTPEGFDVWGQGTTVTVSS
VL: QSVVTQPPSVSGAPGQRVTISCTGSSSNIGAGYDVNWYQQFPGTAPKLLIYGNRNRPSGVPARFSGSKSGASASLAITGLQAEDEADYYCHSYDSGLSGSVFGGGTKLTVL
On to B5, for which, in assay [1], the binding result is on record as “no binding”. Moreover, the “Neut IC50 (ug/ml) subtype B” value in assay [2] amounted to 0.47 µg/mL. Also, the “Neut IC50 (ug/ml) subtype A” value in assay [3] worked out at 0.11 µg/mL.

B6: ADI-21081 (antibody, V domains shown)
VH: EVQLLESGGGLVKPGGSLRLSCAASRFAFSNYYMTWIRQAPGKGLEWISNISGGSTFTNYADSVKGRFTISRDNAKNSVHLQMNSLRAEDTAVYYCVREASVAAGTPEGFDIWGQGTMVTVSS
VL: QSVLTQPPSVSGAPGQRVIISCTGSSSNIGAGYDVNWYQQLPGTAPKLLMYGNRNRASGVPDRFSGSKSGTSASLAITGLQAEDEADYYCHSYDSSLGGSVFGGGTKLTVL
notes: also called Ab 326
For the molecule B6, the binding result in assay [1] is “no binding”. In addition, in assay [2], the “Neut IC50 (ug/ml) subtype B” value stood at 0.32 µg/mL. For the same molecule, the “Neut IC50 (ug/ml) subtype A” value in assay [3] turned out to be 0.1 µg/mL.

B7: ADI-41401 (antibody, V domains shown)
VH: EVQLLESGGGLVHPGRSLRLSCAASGFTFGDYAMHWVRQAPGKGLEWVSGISWNSDTIEYADSVKGRFTISRDNAKNSLYLQMNSLRAEDTALYYCAKDFGSSWEAYFDYWGQGTLVTVSS
VL: DIVLTQSPSYLSASVGDRVTITCRASQSISTYLNWYQQKPGKAPKLLISAASSLQSGVTSRFSGSGSGTDFSLTISSLQPEDFATYYCQQSYSTALTFGGGTKVEIK
notes: IgG1
On to B7, for which the “Neutralization IC50 (RSV subtype A)” value in assay [4] was greater than 25 µg/mL. In assay [5], this molecule registered a Kd of 3.22 nM. Moreover, the binding result in assay [6] was “no binding (tested: 100 nM antigen)”.

B8: ADI-41398 (antibody, V domains shown)
VH: EVQLLESGAEVKKPGASVKVSCKASGYTFTNYGISWVRQAPGQGLEWMGWISAYNGNTNYAQKLQGRVTMTTDTSTSTAYMELRSLRSDDTAVYYCARDGGVIAAATLGYWGQGTLVTVSS
VL: EIVLTQSPLSLPVTLGQPASISCRSSQSLVYSDGNTYLSWFQQRPGQSPRRLIYKISNRDSGVPNRFSGSGSGTDFTLKISRVEAEDVGIYYCMQGIYWPPTFGQGTKVEIK
notes: IgG1; also called Ab 691
Regarding B8, in assay [4], the “Neutralization IC50 (RSV subtype A)” value amounted to 0.17 µg/mL. The Kd in assay [5] amounted to 0.6 nM. The binding result in assay [6] is given as “no binding (tested: 100 nM antigen)”.

B9: ADI-41352 (antibody, V domains shown)
VH: EVQLVESGGGLVQPGGSLRLSCAASGFTFSSYRMNWVRQAPGKGLEWVSYIDISSSTIYYADSVKGRFTISRDNAKNSLYLQMNSLRAEDTAVYYCARDQLVWEPLIRNHYYYAMDVWGQGTTVTVSS
VL: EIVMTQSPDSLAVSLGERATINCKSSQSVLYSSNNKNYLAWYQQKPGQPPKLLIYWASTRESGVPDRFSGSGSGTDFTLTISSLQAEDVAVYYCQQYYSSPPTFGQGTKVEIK
notes: IgG1
Turning to B9, in assay [4], the “Neutralization IC50 (RSV subtype A)” value is greater than 25 µg/mL. In assay [5], this molecule displayed a Kd of 3.36 nM. The binding result in assay [6] was “no binding (tested: 100 nM antigen)”.

B10: ADI-21089 (antibody, V domains shown)
VH: EVQLLESGGGLVKPGGSLRLSCVASGFRFTSYSMNWVRQAPGKGLEWVSSISASSSYVDYADSLKGRFTISRDNAQNSLFLQMNSLRAEDTAVYYCARDYYDSGNYHSPFPMDVWGQGTTVTVSS
VL: QSVLTQPPSVSGAPGQRVTISCTGSRSNIGAGYDVHWYQQLPGTAPKLLIYGNNKRPSGVPDRFSGSKSGTSASLAITGLQAEDEADYYCQSYDSGPIFGGGTKVTVL
Take B10: the Kd in assay [1] worked out at 3.34 nM. The “Neut IC50 (ug/ml) subtype B” value in assay [2] is 0.17 µg/mL. Also, in assay [3], the “Neut IC50 (ug/ml) subtype A” value came to 0.27 µg/mL.

B11: ADI-41419 (antibody, V domains shown)
VH: EVQLVESGGGLVQPGRSLRLSCAASGFTFDDYAMHWVRQAPGKGLEWVSGISWNSGSVGYSDSVKGRFTISRDNAKSSLYLQMNNLRAEDTALYYCARDMAHTQDYFDTSEYDSWGQGTLVTVSS
VL: QPVLTQPASVSGSPGQSITISCTGTSSDIGAYNYVSWYQQHPGKAPKLVVYEVNNRPSGISNRFSGSKSGNTASLTISGLQAEDEADYYCSSYTVSATLVFGGGTKLTVL
notes: IgG1
In the case of B11, the “Neutralization IC50 (RSV subtype A)” value in assay [4] is 0.01 µg/mL. The molecule further returned a Kd in assay [5] of 0.305 nM. In addition, the binding result in assay [6] was “no binding (tested: 100 nM antigen)”.

B12: ADI-41356 (antibody, V domains shown)
VH: QVQLVQSGAEVKKPGASVKVSCKASGYTFTNYDINWVRQATGQGLEWMGWMNRNNGNTGYARKFQGRVTMTRNTSISTAYMELSSLRSEDTAVYYCARGGDFYAMDVWGQGTTVTVSS
VL: SYELTQPPSVSVSPGQTASITCSGDKLGDKYASWYQQKPGQSPVLVIYQDTKRPSGVPERFSGSNSGNTATLTISGTQAVDEADYYCQVWDGSIAFGGGTKVTVL
notes: IgG1
Take B12: in assay [4], the “Neutralization IC50 (RSV subtype A)” value came out at 0.115 µg/mL. This molecule gave a Kd in assay [5] of 0.725 nM. For the same molecule, the binding result in assay [6] was “no binding (tested: 100 nM antigen)”.

B13: ADI-41828 (antibody, V domains shown)
VH: EVQLVESGGGLVQPGGSLRLSCADSDFTFSTYSMNWVRQAPGKGLEWISYITGRSSAIYYADSVKGRFTISRDNAKNSLFLQMNSLRAEDTAVYYCTTFMAGYSFGHGDAFDIWGQGTTVTVSS
VL: SYELTQPPSVSVAPGQTARITCGGNNIGSKSVHWYQQKPGQAPVLVVYDDSDRPSGIPERFSGSNSGNTATLTISRVEAGDEADYYCQVWNSNSDHPHWVFGGGTQLTVL
On to B13, for which the Kd in assay [7] was determined as 0.241 nM. Also, in assay [8], the “Neutralization IC50 (RSV subtype A)” value is 5.53 µg/mL.

B14: ADI-41434 (antibody, V domains shown)
VH: EVQLVESGGGLVQPGRSLRLSCEASGFTFDDYAMHWVRQTPGKGLEWVSGISWNSGSIVYADSVKGRFTISRDNAKNSLYLQMHSLRPEDTALYYCAKDNYTFGNYYYYYGMDVWGQGTTVTVSS
VL: EIVLTQSPVTLSVSPGERATLSCRASQNVISNLAWYQQKPGQAPRLLIYGASTRATGIPARFSGSGSGTEFTLTISSLQSEDFAVYYCQQYNNWPLSFGGGTKVEIK
notes: IgG1; also called Ab 718
With B14, in assay [4], the “Neutralization IC50 (RSV subtype A)” value is greater than 25 µg/mL. In assay [5], this molecule gave a Kd of 0.613 nM. Further, the binding result in assay [6] is listed as “no binding (tested: 100 nM antigen)”.

B15: ADI-41421 (antibody, V domains shown)
VH: QVQLVESAAEVKRPGASLKVSCKASGYTFIDYDISWVRQAPGQGLDWMGWISTYDGSAKYPENLQARVAMTTDTSTSTAYMELESLTSDDTAVYYCARARRGSSGWVSTTGPTPFFDYWGRGTLVTVSS
VL: SYELTQPPSVSVSPGQTARITCSGDALPKRYAYWYQQKSGQAPVLVIYEDNKRPSGIPERFSGSSSGTVATLTISGAQVEDEADYSCYSTDATGNHRGLFGGGTKLTVL
notes: IgG1
Turning to B15, the “Neutralization IC50 (RSV subtype A)” value in assay [4] came out at 4.78 µg/mL. In assay [5], this molecule had a Kd of 2.52 nM. Further, the binding result in assay [6] is given as “no binding (tested: 100 nM antigen)”.

B16: ADI-41416 (antibody, V domains shown)
VH: EVQLVESGGGLVKPGGSLRLSCAASGFKFSSYTMNWVRQAPGKGLEWVSSITGGSSFINYADSVKGRFTISRDNAKNSLYLQMVSLRAEDTAVYYCARDLSSHITIFGAVSDYWGRGTTVTVSS
VL: QSVLTQPPSVSGAPGQRVTISCTGSSSNIGAGYDAHWFQQLPGSAPKLLIYANTNRPSGVPDRFSGSKSGTSASLAITGLQAEDEADYYCQSYDSTLSVVFGGGTKLTVL
notes: IgG1
With B16, the “Neutralization IC50 (RSV subtype A)” value in assay [4] is 0.05 µg/mL. Besides, in assay [5], the Kd came out at 0.444 nM. Besides, the binding result in assay [6] is “no binding (tested: 100 nM antigen)”.
